This series can be described thus: label from the status in PepcDB records.
Turning to “MLKVSVITACFNSEKTIEDTILSVLHQTYKNIEYIIIDGASTDSTLEIIQKHRDKIACVMSEKDEGIYDAMNKGIKRSSGDIIALLNSDDFYKDEFVVEKVVHEFERKNCDSVYADLVFVKPDCLEKVVRYYEIGEFNPKTLLYGVVPAHPTLFVKKAIYERYGLYKTDYKISADFEMIIRLFVVQKISFSYLKEVLVVMRTGGVSASGFKSLLLRNKENIRACKENGIQANVFSMLLKYPRKIMGLFKRGKGGLKRND”, the protein production entry was “failed”.

“MLKYSMHLNIILLEASLELVPKEIVNHPAVIKNAKRRNKKPEDTLLDISLHYHAMKYLENSHKRGRPDILHQALLVILTDPVIKGDIFIHTIQSKIIKVNPNMRPPKNYLRFIGLMEQLLKYGKIPINGDETLMEVTNLTLDNIVNRYDLILLSEKGEKINPEEICKLDEKWLLGIGAFPHGDFSDKILNLAKKIYSISGFPLETQQVLCRIFSACNSILGWPLEHHHHHH”: the protein production result is listed as “failed”.

Turning to “MLLAVEGGGLFSASASGYSKGLTLLFSGDKDVDRPMRVVPWNHYQVVDQEPEADPVLQLDSIKNRVSRGCAASFSCFGGASAGLETPSPLKVEPVQQQHREISSPESVVVVSEKGKDQISEADNGSSKEAFKLSLRSSLKRPSVAESRSLEDIKEYETLSVDGSDLTGDMARRKVQWPDACGSELTQVREFEPRYV”, the protein production result is recorded as “failed”.

On to “MLLEDRILKKWLLPFILSVLIAVDSMAQCIPVYKDSSMSVERRVTDLLGRMTLREKIAQLSHLHGYQLYNGQEVDYQKLRDAAGDISYGCIEGFNLTGENVRKAFHAIQKYMVEETRLGIPVFTVTESLHGSVHDGSTIFPQSVAVGSTFNLDLAYQMTKAIATELRSQGVIQTLSPGLDVVRDLRWGRVEESFGEDPWLVGQMGIAQVKGYIDGGISPMLKPFGPGGAPLGGLNLASVESGERDIRNIHIKPYEMAVRNTEVKAVMTSYNSWNGIPNSASSYLLTNILRNEWGFKGYVYSDWGAVAMLKDFQHTAKDDSEAAIQALTAGVDLEASSNCYWALEQLIEQGRFDEKYVDLAVGRILRVKFELGLFENPYQGADMPGVAMRTKEAVELSRRVADESIVLLKNENTLLPLNLNKIKSLAVIGPNANQVQFGDYTWSRSNKDGVTPLEGLKKRVGNKIKINYAAGCDLITDNKSGFDEAVAAVKASDMAVVFVGSSSASLARDYSDATCGEGFDLSSLDLTGVQEELVEEIYAIGKPVIVVLVTGKPFSISWIKEHIPAIVVQWYGGEKAGDAIADMLLGNINPSAKLPFSFPQSVGHLPVFYNHLPTDKGFYRRPGRPNEPGRDYVFSSPAPLWSFGHGLSYTTFEYLNAHYSAELLHPSDTLIVSVSLKNTGSVAGKEVVQLYVRDVVSSVVTPVKQLKAFSKPFLQPGEMQTVVLKLPIQELALYDLSMKKVVEEGEYEIQIGTASDDIRLRRTIFVGRQPVTSNSLGHNDFCMDEIVKNPGRKIKVAGCVRDVQATPISGIEIKSNYSGRTVISKEGGRYSILTVENDVLTVSAKGFETVNIKVNKQKDIDIKLNYSHD”, for which the protein production entry is “failed”.

In the case of “MLLKRSLPKMRWKSWVKPWQQLDWPLFCLPVGVSIFGGLMILSTELKQPVTDWWWHWLIAGIGVFIALFLARCRYDNLLQWHWITYVLTNISLITVMAAGTSAKGAQRWLTIGGFNVQPSEFAKIGVIITLAALLHKHTATRIEDVFRALAITAIPWLLVFVQPDLATSLVFGAIVLGMLYWANANPGWLLLMISPIIAAILFTMSWPLSTPIILFKEIFITPFGVAWAIGMAILGWLTLPWRRFNMGTIGAFSLNLLGGELGIFAWNHVLKEYQKNRLTAFINPEQDPLGSGYHLIQSRIAIGAGEMWGWGLFKGPMTQLNFVPEQHTDFIFSAIGEEFGLFGCLIVLFVFCLICWRLLHVAQTAKDNFGSLLAIGVLSMIIFQLVVNVGMNVGLAPVAGIPLPWMSYGRSAMLTNFIALGIVESVANFRQRQKYYF”, the protein production entry is recorded as “failed”.

Take “MLLLWLVVLVIGAAYLTHRRLAPLQILGIVAAYVLLMGIFSSAPGWLLALIWVVLALKIALVALPQWRRKLFTAPVFRWFQRTLPPMSQTEREAIDAGTVWWDGELFSGRPDWRTLLAYPAPKLTEEEQAFIDGPTEALCAMVSDWQIGQDLDLPPEAWAHIKQHGFFALIIPKEYGGKGFSAYAHSQVAMKLATRSGDLASTVMVPNSLGPAELLLHYGTDEQRNRYLPRLARGEEIPCFALTGPLAGSDAGAMPDTGIICKGQWQGEEVIGLRLNWEKRYITLGPVATLLGLAFKAYDPDHLLGEQEELGISLALIPTDTPGVEIGKRHLPLGAAFMNGPNSGKDVFVPLDFLIGGQAMLGKGWMMLMNCLSVGRSISLPAVGTGAAKYTSLVTGQYANIREQFNVPLAAFEGIQESLARIGGNAWLMDSARLLTAKAVDLGEKPSVLSAILKYHLTERGRECIQHAMDVHGGKGIIMGPNNYLGRNWQGAPIFITVEGANILSRNLMIFGQGAIRCHPFVLKEMALAGREDHDQALKEFDDLLMKHILFAAGNAASTLVYGLGLGRFERVPGDALSQGYFRALNRQAAAFAMMADLSMMLLGGALKRRERLSARLGDVLSYLYLASAALKRYHDQGSPEYLQPLLRWAMEESLGQTERALDRLLDNFPNRFVGCALRVLVFPFGRRHKGPGDELDAEVAELIGRRKGDPALEELLAGCYRPQAEHDPVADLQRASDLLEDTAQLSKALYQAVKEGKVQPAPGQSGIDAAVKAGVLQPDDGQRLHEAEQARRKVIDVDAFDKAQLLAVPGKVR”: the protein production entry is reported as “failed”.

For “MLLNKYFLANRNINFIVMALLFSSSYISASSFISGPSAVYKYGLSFILLATIQIPTTLIVFIIVGQRLNRESKKINAINIIDYIRHRYESDFLALMSGFVLIFFSMFLISAQLIGGAKLIEVFWGIDYVVGLTFFAFLVFIYVFFGGFKAVAYTDLIQGFLMLVSSVILFSKMLDLGGGINNLFKTATSSLDKSLLLPSNADLKPQYIISFWILIGIGILGQPQIINNFIAFKDENAIKFSLPISTFIISFLIVLMHLIGFFAIILFPDLSPNDKVVLNVALKVLNPFSCFMFFIGLLSAIMSTVDSNLLLITSVLIKSIFIYKEDLKEDVKIGRIIMISNIFFILIILIFSLFPPNFLFFINIFAFGALEVSFFPIIVFGLYLNFVSKIAAFASMFLGLIFYLSILFFGLNIWFFHPVFPSFFVSIFTFLVVNFFCKKNSKVC”, the protein production entry is given as “failed”.

Regarding “MLLRKGTVYVLVIRADLVNAMVAHARRDHPDEACGVLAGPEGSDRPERHIPMTNAERSPTFYRLDSGEQLKVWRAMEDADEVPVVIYHSHTATEAYPSRTDVKLATEPDAHYVLVSTRDPHRHELRSYRIVDGAVTEEPVNVVEQYLEHHHHHH”, the protein production entry was “failed”.

For the sequence “MLLSMLRFEWRYYLRQPSFYVVSFLLFLMSFLSVASNNIQIGSGGEVMKNSPFSISQTLLIMGLISMFAVVNFVGSTAIRNHQHLMEELVYSKPLSPFAYQFGRFLGSFMVVLAVFAFVPIGLMLGSFMPWVDASRFGPFALSHYVIPYLQLSVPSLLLISCLFYAMASRFRSLMALYLTAVAMLVLYTLTGEMASQPQYRTIAALLDPFALRTFAEVTRYWTISEKNHQLLELSGLVLQNRALWLVIAGVLLAMSGIFSQPTLTKKRDKKSSKVEKIPDLVPLTALAMATLPNGRLQFWTRVKFEVRQVLLTAPFVVLGALTVFNLVGPMFDDFGWYGTSNWPLTQDMVDNIAGATGLLMVIVLIYYSAEIVWRERSSGMGDIVDSVPVSNLSFWASKLVAVLIVMTLLYMLAMGTTIVFQLIKGQSNLEISQYLIRLGFYYLLPLLMTSVLAFFLQVLSPNKYAGMGLFVAYYLTTFVMANWGFGHSLYNFGQSPSVSYSDMNGYGWGLLSHSLYMIYWGAFSVMLFVLGYGLYHRGPQQSLKTRLGLLGYQLGHNGKVIIAAALVIFVGSGSYLFYQTKVVNHYLTQEETTDLQADYEKTFKQYQGMPILVTTRVNANVDIFPEQRKIAAKVMFEWQNKSDKPIEKMLVQFPEHTQAETVKINIPNTHLGEFDRRYRNAWLTFSTPVQPGQLVVGNIELVRESTGVAESGFDLSVVENGTFINNFELLPLFGYQDGYELMDRHERQKRGLAEKNRANKLEDSRFYQQNFFGVDGDFIQFEATISTSMDQIALAPGYLQKQWQQDDRQYFHYLMDSPMVNFYAIISGRYQVEKIEHHGVAVEVYYHADHSWNVTRMVESVKDSIDYYTAAFGPYQHKQMRIMEFPGYRSFAQSFANTVPYSERIGFITDLRNEDNIDPVYYVTAHEVAHQWWGHQVGAADVQGSAVISESLSQYSALMVLEHKYGDKMIRKFLKYELDRYLRGRSAESIKEQPLLRSENQQYIHYQKGSVVMMAIKDVLGEAKLNANLKAFLTRYQYRNDPFPTTLDLVSYLKQGTDEVQSRFIDESFNDITLYDLRLTNAVAKTLPDGKTQLELTIYASRKVATGKGEEAEQPLDMSIDIGAFSADPDKLKDEKQILLLEKHHLVSGENKLTITLAEKPSYVGVDPFVKLIDRDARDNIFKL”, the protein production entry is “failed”.

Consider “MLLVGVAIAFLHKYIVLVVLTSILITACQGDIIDNPNLESNVPQSTDCRVVEHAVGKTKICGKPKKIAVLEPKMLSLMLALDVQPAAYADAYLVNAPQFDNPSQQIPYLGKYVTSQPINLGDRSSPSLEALTLLKPDLILGLNYQDNQLFSAIAPTVFIDNEQNWQESIKIVAKALDSQKNIPSIITSQQQQLAKVRAQLESLVSTHPRVLNIVCSQLMDYIEVTYNGNTIEILEKIGFQPVFLPDIERKPGLRPQITLETLAQLDADIVIVNTWVDNWNGKSTYTVPLKELKQKWAKNPLLHNSQAWKEGRVYFVDYTLWGNVIGAPIANALILEQLPSLLLSNTLKP”, for which the protein production result was “failed”.

Regarding “MLMNNRVNNMMRTYKFRIYISKSIQETIEEHLNICRYLYNYLLEQKTKNPKLNKGDTQKLITEHKKENPELKKVHSKALQMVNNKLWGNLKALGKLKQNGHKVGKLRFKSSKNHYKTIEYNQSGFKIKDNKLYLSKIGEISIKLHRKIKGEIKGVIIKKELTNKWFAFFQVEEEPKPLPKTNKVVGIDLGIDGYTIDSDGNKFENPKFIDETLDKIKKVQKNLSRKVRGSNNYKKTKLKLIKVYDKLNNQKNDFLHKLSRYYINNYDKIVLEDLNIKSMVENKKGQKTLNRHILDGSWKKFINLLLYKAEGAGREVILINPAYTSKKCFNCGCVVSSLRLSDRIFFCPNCGWKIDRDYNASLNILKSGLGESVVPAEGRPLLRVIPYIKVISGQVSPMNQEALPEGRGLRKPKGFRSTPSVREG”, the protein production entry is given as “failed”.

For “MLNIQNYSASPHPGIVAERPQTPSASEHAEIAVVPSTTEHRGTDIISLSQAATKIQQAQQTLQSTPPISEENNDERTLARQQLTSSLNALAKSGVSLSAEQNENLRSTFSAPTSALFSASPMAQPRTTISDAEIWDMVSQNISAIGDSYLGVYENVVAVYTDFYQAFSDILSKMGGWLSPGKDGNTIKLNVDSLKSEISSLINKYTQINKNTILFPSQTGSGMTTATKAEAEQWIKELNLPDSCLKASGSGYVVLVDTGPLSKMVSDLNGIGSGSALELDNAKYQAWQSGFKAQEENLKTTLQTLTQKYSNANSLYDNLVKVLSSTISSSLETAKSFLQG”, the protein production result is reported as “failed”.

As for “MLNMSFAPTSLTVSQMSGTRTIRPLTAATLCGIAFIQDRLIAIDSIKGHLLEIDPKTDNSKILNPHQAKEFTDVTGLAVWEDNLWVTRGNSVYVSKLSSLGLEHFVTLPYSADGVAVWESTVYVSCHRLGYILIFDRDTRKEITRFYAPGVGVENLVVNGNTLWVCDRTEQTVYSMDRATGEVIFSVLTPFESPTGIAVHLDAETGKENLYVAYASEEPYIRDNPNADPNHELTYRDRTFIHPLYYHHQPDKHYALSNGYLIEMSYAEEISPLEEVYIPEVEWRIALPSETERQKIRHIEPIGIPFTEEVIDGQRVALFKFDALVPGERHIFGWKALLEVRGIKYRITPKEVENIPELSPEFQERYLVDDDDLAMDTSIVRRAAEEAVGSETNLLRKMYSIRNYVYDELSYGIKPYIDTPDIVLERGIGSCGEYVGVLLALCRLNGIPCRTVGRYKCPPQAEQQGVPLQPDFNHVWLEFYIPGFGWLPMESNPDDLGRGSQYPTRFFMGLCWYHIEIGKGVSFETISSQGKRLTKDDIPIGDLAINHIRFTIVKELPDF”, the protein production result was “failed”.

As for “MLNPVSQLSQAIRENTEHLAEKMKILFQNTGRAWEDLEARINAENEVPILKTSNKEISSILKELRRVQKQLEVINAIVDPSGSLDLLTGNRSLASSAQPGLGKGRVAAQSPPSPASAEALLPALPLRNFPQRASCGPPSLPDPTFLPDAERFLI”, the protein production result was “failed”.

The values are drawn from a protein production outcome set (Wang et al. 2014).
